From patent publication US20100210473A1

How the values were obtained:
[1] = molecular target: antigen of Z13e1 scFv ('its antigen')
[2] = molecular target: monomeric gp120 (HIV-1) (HIV-1); assay: yeast display flow cytometry, gp120 titrated in the absence of sCD4, MFI of antigen binding (sandwich with biotinylated mAb and SA-PE)
[3] = molecular target: gp120 complexed with soluble CD4 (HIV-1); assay: yeast display flow cytometry, gp120 titrated in the presence of sCD4, MFI of antigen binding (sandwich with biotinylated mAb and SA-PE)

Substance | Kd [1] | Kd [2] | Kd [3]
Z13e1 scFv displayed on yeast | 50 nM |  | 
scFv X5 displayed on yeast (X5-pPNLS in EBY100) |  | 14.5 nM | 1.1 nM
